# Test results from patent publication US20190314526A1.
# Like-named read-outs stand apart in the source and are kept apart here.
# Experiments:
# Assay in all cases: cell-based or functional assay
# [1] = molecular target: AAV-2 with a wild-type capsid (rAAV-2 virion) (AAV-2) (UniProt P03135)
# [2] = molecular target: bovine AAV-C1 capsid (AAV-C1-LacZ vector) (bovine AAV)
# [3] = molecular target: primate AAV-1 capsid (rAAV virion) (primate AAV-1)
# [4] = molecular target: primate AAV-4 capsid (rAAV virion) (primate AAV-4)
# [5] = molecular target: primate AAV-5 capsid (rAAV virion) (primate AAV-5)
# [6] = molecular target: primate AAV-3B capsid (rAAV virion) (primate AAV-3B)
# [7] = molecular target: caprine (goat) AAV capsid (caprine rAAV virion) (caprine AAV)
# [8] = molecular target: primate AAV-8 capsid (rAAV virion) (primate AAV-8)
# [9] = molecular target: primate AAV-6 capsid (rAAV virion) (primate AAV-6)
# [10] = molecular target: caprine (goat) AAV capsid (caprine rAAV virion) (caprine AAV); remark: listed apart in the source
# [11] = molecular target: primate AAV-8 capsid (rAAV virion) (primate AAV-8); remark: listed apart in the source
substance,measurement,setting,value
"purified pooled human IgG IVIG-8 (Panglobulin Lot #1838-00351, ZLB Bioplasma AG)",% blue cells compared to the control at IVIg 8 0.01 ug/ul,[1],100%
same,% blue cells compared to the control at IVIg 8 0.1 ug/ul,[1],100%
same,% blue cells compared to the control at IVIg 8 10 ug/ul,[1],2%
same,% blue cells compared to the control at IVIg 8 50 ug/ul,[1],0%
same,Lowest concentration of IVIG showing >50% neutralization of the virus,[1],10 mg/mL
same,lowest concentration of IVIG showing more than 50% neutralization,[1],0.2 mg/mL
same,fold more resistant to neutralization by human IVIG than AAV-2,[2],16 fold
same,lowest concentration of IVIG showing more than 50% neutralization,[2],3.25 mg/mL
same,% blue cells compared to the control at IVIg 8 0.01 ug/ul,[3],100%
same,% blue cells compared to the control at IVIg 8 0.1 ug/ul,[3],86%
same,% blue cells compared to the control at IVIg 8 10 ug/ul,[3],14%
same,% blue cells compared to the control at IVIg 8 50 ug/ul,[3],0%
same,Lowest concentration of IVIG showing >50% neutralization of the virus,[3],10 mg/mL
same,% blue cells compared to the control at IVIg 8 0.01 ug/ul,[4],100%
same,% blue cells compared to the control at IVIg 8 0.1 ug/ul,[4],100%
same,% blue cells compared to the control at IVIg 8 1 ug/ul,[4],100%
same,% blue cells compared to the control at IVIg 8 50 ug/ul,[4],49%
same,Lowest concentration of IVIG showing >50% neutralization of the virus,[4],50 mg/mL
same,% blue cells compared to the control at IVIg 8 0.1 ug/ul,[5],17%
same,% blue cells compared to the control at IVIg 8 1 ug/ul,[5],1%
same,% blue cells compared to the control at IVIg 8 10 ug/ul,[5],1%
same,% blue cells compared to the control at IVIg 8 50 ug/ul,[5],0%
same,Lowest concentration of IVIG showing >50% neutralization of the virus,[5],0.1 mg/mL
same,% blue cells compared to the control at IVIg 8 0.01 ug/ul,[6],92%
same,% blue cells compared to the control at IVIg 8 1 ug/ul,[6],45%
same,% blue cells compared to the control at IVIg 8 10 ug/ul,[6],0%
same,% blue cells compared to the control at IVIg 8 50 ug/ul,[6],0%
same,Lowest concentration of IVIG showing >50% neutralization of the virus,[6],1 mg/mL
same,% of control transduction at IVIg 8 0.1 ug/ul,[7],120%
same,% of control transduction at IVIg 8 1 ug/ul,[7],93%
same,% of control transduction at IVIg 8 10 ug/ul,[7],80%
same,% of control transduction at IVIg 8 40 ug/ul,[7],14%
same,% of control transduction at IVIg 8 50 ug/ul,[7],8%
same,Lowest concentration of IVIG showing >50% neutralization of the virus,[7],50 mg/mL
same,% blue cells compared to the control at IVIg 8 0.01 ug/ul,[8],90%
same,% blue cells compared to the control at IVIg 8 0.1 ug/ul,[8],88%
same,% blue cells compared to the control at IVIg 8 1 ug/ul,[8],77%
same,% blue cells compared to the control at IVIg 8 50 ug/ul,[8],0%
same,% of control transduction at IVIg 8 0.1 ug/ul,[8],105%
same,% of control transduction at IVIg 8 10 ug/ul,[8],44%
same,% of control transduction at IVIg 8 20 ug/ul,[8],11%
same,% of control transduction at IVIg 8 40 ug/ul,[8],0%
same,% of control transduction at IVIg 8 50 ug/ul,[8],0%
same,Lowest concentration of IVIG showing >50% neutralization of the virus,[8],50 mg/mL
same,% blue cells compared to the control at IVIg 8 0.01 ug/ul,[9],100%
same,% blue cells compared to the control at IVIg 8 0.1 ug/ul,[9],81%
same,% blue cells compared to the control at IVIg 8 10 ug/ul,[9],14%
same,% blue cells compared to the control at IVIg 8 50 ug/ul,[9],0%
same,Lowest concentration of IVIG showing >50% neutralization of the virus,[9],10 mg/mL
same,Lowest concentration of IVIG showing >50% neutralization of the virus,[10],40 mg/mL
same,Lowest concentration of IVIG showing >50% neutralization of the virus,[11],10 mg/mL
